Reference: patent US20180291335A1, “MODIFIED POLYNUCLEOTIDES FOR ALTERING CELL PHENOTYPE” (ModernaTX, Inc., priority 2012, published 2018)
Where “and” joins values, the source holds several entries; their conditions need not be identical. Identical values can stand only once.

Key:
[1] = tested on: peripheral blood mononuclear cells (PBMC); test: In vitro screening in PBMC: G-CSF protein expression by ELISA; format: cell-based, human
Method in brief: (§1)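 Culture supernatant was collected and kept frozen until analysis. ELISA on these samples measured secreted protein and cytokine induction.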

[2] = tested on: interferon-alpha (IFN-α); test: In vitro screening in PBMC: interferon-alpha induction by ELISA; format: cell-based, human
Method in brief: as §1

[3] = tested on: tumor necrosis factor alpha (TNF-α); test: In vitro screening in PBMC: tumor necrosis factor alpha induction by ELISA; format: cell-based, human
Description: The supernatant was harvested and stored frozen until analyzed by ELISA to determine the G-CSF protein expression, and the induction of the cytokines interferon-alpha (IFN-α) and tumor necrosis factor alpha (TNF-α).

[4] = tested on: HeLa cells; test: G-CSF modified mRNA transfected in HeLa cells, G-CSF ELISA; format: cell-based, human; conditions: HeLa cells, ELISA
Method in brief: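 Human G-CSF mRNAs bearing various chemical modifications, made with a mutant T7 polymerase, were either transfected into HeLa cells or added to rabbit reticulocyte lysate at 250 ng mRNA. G-CSF protein was quantified by ELISA.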

[5] = tested on: rabbit reticulysates; test: G-CSF modified mRNA in rabbit reticulysates, G-CSF ELISA; format: biochemical; conditions: 250 ng of modified mRNA, listed as 5-methylcytosine/N1-methylpseudouridine
Procedure: To assess the activity of all our different chemical modifications in the context of a second open reading frame, we replicated experiments previously conducted using luciferase mRNA, with human G-CSF mRNA. […] The mutant T7 polymerase was obtained commercially (Durascribe® T7 Transcription kit (Cat. No. DS010925) (Epicentre®, Madison, Wis.).
The modified RNA in Tables 27 and 28 were transfected in vitro in HeLa cells or added to rabbit reticulysates (250 ng of modified mRNA) as indicated. […] In Table 27, “NT” means not tested.

[6] = tested on: interferon-alpha (IFN-alpha); test: 2′Fluoro chemistries in PBMC: IFN-alpha production by ELISA; format: cell-based, human; conditions: G-CSF modified mRNA
[7] = tested on: tumor necrosis factor-alpha (TNF-alpha); test: 2′Fluoro chemistries in PBMC: TNF-alpha production by ELISA; format: cell-based, human; conditions: G-CSF modified mRNA
[8] = PBMC Donor 1, 500 ng G-CSF mRNA
[9] = PBMC Donor 2, 500 ng G-CSF mRNA
[10] = PBMC Donor 3, 500 ng G-CSF mRNA
[11] = PBMC Donor 2, 500 ng G-CSF mRNA, listed as 5-methylcytosine and N1-methylpseudouridine (2nd set)
[12] = PBMC Donor 2, 500 ng G-CSF mRNA, listed as 5-methylcytosine and N1-methylpseudouridine (4th set)
[13] = PBMC Donor 3, 500 ng G-CSF mRNA, listed as 5-methylcytosine and N1-methylpseudouridine (2nd set)
[14] = PBMC Donor 3, 500 ng G-CSF mRNA, listed as 5-methylcytosine and N1-methylpseudouridine (4th set)
[15] = listed as 5-methylcytidien/N1-methylpseudouridine
[16] = listed as 5-methylcytidine/N1-methylpseudouridine

B1: 5-methylcytosine and N1-methyl-pseudouridine (1^st set): G-CSF mRNA (SEQ ID NO: 408) fully modified with 5-methylcytosine and N1-methylpseudouridine; repeated sets/tests (nucleic acid)
chain: GGGAAAUAAGAGAGAAAAGAAGAGUAAGAAGAAAUAUAAGAGCCACCAUGGCCGGUCCCGCGACCCAAAGCCCCAUGAAACUUAUGGCCCUGCAGUUGCUGCUUUGGCACUCGGCCCUCUGGACAGUCCAAGAAGCGACUCCUCUCGGACCUGCCUCAUCGUUGCCGCAGUCAUUCCUUUUGAAGUGUCUGGAGCAGGUGCGAAAGAUUCAGGGCGAUGGAGCCGCACUCCAAGAGAAGCUCUGCGCGACAUACAAACUUUGCCAUCCCGAGGAGCUCGUACUGCUCGGGCACAGCUUGGGGAUUCCCUGGGCUCCUCUCUCGUCCUGUCCGUCGCAGGCUUUGCAGUUGGCAGGGUGCCUUUCCCAGCUCCACUCCGGUUUGUUCUUGUAUCAGGGACUGCUGCAAGCCCUUGAGGGAAUCUCGCCAGAAUUGGGCCCGACGCUGGACACGUUGCAGCUCGACGUGGCGGAUUUCGCAACAACCAUCUGGCAGCAGAUGGAGGAACUGGGGAUGGCACCCGCGCUGCAGCCCACGCAGGGGGCAAUGCCGGCCUUUGCGUCCGCGUUUCAGCGCAGGGCGGGUGGAGUCCUCGUAGCGAGCCACCUUCAAUCAUUUUUGGAAGUCUCGUACCGGGUGCUGAGACAUCUUGCGCAGCCGUGAAGCGCUGCCUUCUGCGGGGCUUGCCUUCUGGCCAUGCCCUUCUUCUCUCCCUUGCACCUGUACCUCUUGGUCUUUGAAUAAAGCCUGAGUAGGAAG
modifications: 5-methylcytosine/N1-methylpseudouridine modified; Description of Artificial Sequence: Synthetic Transcript Sequence
notes: repeated sets/tests
[1]; [8]
  G-CSF Protein Expression: 10,232 pg/ml
[1]; PBMC Donor 1, 500 ng G-CSF mRNA, listed as 5-methylcytosine and N1-methyl-pseudouridine (2nd set)
  G-CSF Protein Expression: 9,564 pg/ml
[1]; PBMC Donor 1, 500 ng G-CSF mRNA, listed as 5-methylcytosine and N1-methyl-pseudouridine (4th set)
  G-CSF Protein Expression: 9,505 pg/ml
[1]; [9]
  G-CSF Protein Expression: 7,245 pg/ml
[1]; PBMC Donor 2, 500 ng G-CSF mRNA, listed as 5-methylcytosine and N1-methyl-pseudouridine (2nd set)
  G-CSF Protein Expression: 8,509 pg/ml
[1]; PBMC Donor 2, 500 ng G-CSF mRNA, listed as 5-methylcytosine and N1-methyl-pseudouridine (4th set)
  G-CSF Protein Expression: 6,927 pg/ml
[1]; [10]
  G-CSF Protein Expression: 6,214 pg/ml
[1]; PBMC Donor 3, 500 ng G-CSF mRNA, listed as 5-methylcytosine and N1-methyl-pseudouridine (2nd set)
  G-CSF Protein Expression: 7,141 pg/ml
[1]; PBMC Donor 3, 500 ng G-CSF mRNA, listed as 5-methylcytosine and N1-methyl-pseudouridine (4th set)
  G-CSF Protein Expression: 5,405 pg/ml
[2]; [8]
  IFN-α Expression: 0 pg/mL
[2]; [9]
  IFN-α Expression: 60 pg/mL
[2]; [11]
  IFN-α Expression: 66 pg/mL
[2]; [12]
  IFN-α Expression: 0 pg/mL
[2]; [10]
  IFN-α Expression: 136 pg/mL
[2]; [13]
  IFN-α Expression: 140 pg/mL
[2]; [14]
  IFN-α Expression: 0 pg/mL
[3]; [8]
  TNF-α Expression: 54 pg/mL
[3]; PBMC Donor 1, 500 ng G-CSF mRNA, listed as 5-methylcytosine and N1-methylpseudouridine (2nd set)
  TNF-α Expression: 54 pg/mL
[3]; PBMC Donor 1, 500 ng G-CSF mRNA, listed as 5-methylcytosine and N1-methylpseudouridine (4th set)
  TNF-α Expression: 36 pg/mL
[3]; [9]
  TNF-α Expression: 79 pg/mL
[3]; [11]
  TNF-α Expression: 97 pg/mL
[3]; [12]
  TNF-α Expression: 14 pg/mL
[3]; [10]
  TNF-α Expression: 126 pg/mL
[3]; [13]
  TNF-α Expression: 149 pg/mL
[3]; [14]
  TNF-α Expression: 13 pg/mL
[4]; G-CSF mRNA, listed as 5-methylcytosine/N1-methylpseudouridine, Control
  G-CSF protein (pg/ml) HeLa cells: 1,106,591 pg/ml
[4]; G-CSF mRNA, listed as 5-methylcytosine/N1-methylpseudouridine, Test A
  G-CSF protein (pg/ml) HeLa cells: 1,534,318 pg/ml
[4]; G-CSF mRNA, listed as 5-methylcytosine/N1-methylpseudouridine, Test B
  G-CSF protein (pg/ml) HeLa cells: 1,568,636 pg/ml
[4]; G-CSF mRNA, listed as 5-methylcytosine/N1-methylpseudouridine, Test D
  G-CSF protein (pg/ml) HeLa cells: 1,168,864 pg/ml
[4]; combination chemistries, listed as 5-methylcytidine/N1-methylpseudouridine
  G-CSF protein (pg/ml) HeLa cells: 747,045 pg/ml and 689,091 pg/ml
[4]; combination chemistries, listed as 5-methylcytosine/N1-methylpseudouridine
  G-CSF protein (pg/ml) HeLa cells: 1,017,727 pg/ml
[4]; combination chemistries, listed as 5-methylcytosine/N1-methylpseudouridine, Control 1
  G-CSF protein (pg/ml) HeLa cells: 848,409 pg/ml
[4]; combination chemistries, listed as 5-methylcytosine/N1-methylpseudouridine, Control 2
  G-CSF protein (pg/ml) HeLa cells: 581,818 pg/ml
[5]; Test A
  G-CSF protein (pg/ml) Rabbit reticulysates cells: 110,500 pg/ml
[5]; Test B
  G-CSF protein (pg/ml) Rabbit reticulysates cells: 76,750 pg/ml
[5]; Test D
  G-CSF protein (pg/ml) Rabbit reticulysates cells: 97,125 pg/ml
[6]; [15]
  IFN-alpha: 3 Donor Average: 35 pg/mL
[6]; [16]
  IFN-alpha: 3 Donor Average: 31 pg/mL
[7]; [15]
  TNF-alpha: 2 Donor Average: 3 pg/mL
[7]; [16]
  TNF-alpha: 2 Donor Average: 280 pg/mL
